Test results from publication PMC7173111.

Target: HBc-YFP fusion protein (Hepatitis B virus) (UniProt P03146)
Assay: FRET or BRET

Chain of UniProt P03146 (P03146 whole entry, the tested form may be a part): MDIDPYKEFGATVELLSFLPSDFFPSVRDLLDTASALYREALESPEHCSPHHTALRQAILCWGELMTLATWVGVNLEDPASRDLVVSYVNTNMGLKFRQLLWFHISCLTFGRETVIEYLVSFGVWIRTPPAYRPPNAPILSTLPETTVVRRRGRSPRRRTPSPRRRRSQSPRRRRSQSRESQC

Q: Which results are given for “A3G-CFP fusion protein (from UniProt Q9HC16 1-384) (natural protein)”?
A: FRET efficiency (E EFF, %): 18.5%; FRET ratio (FR): 1.68
